Experimental data published in patent publication US20100278838A1, “EPHA2 MONOCLONAL ANTIBODIES AND METHODS OF USE THEREOF” (MEDIMMUNE, LLC, priority 2002, published 2010).
Entries after “also recorded” stand apart in the source; their conditions may differ.

B1: Eph099B-233.152: EphA2 monoclonal antibody; hybridoma ATCC PTA-5194; VL SEQ ID NO:17, VH SEQ ID NO:21 (antibody, listed as Homo sapiens, V domains shown)
VH: EVKLVESGGGLVQPGGSLSLSCAASGFTFTDYSMNWVRQPPGKALEWLGFIRNKANDYTTEYSASVKGRFTISRDNSQSILYLQMNALRAEDSATYYCVRYPRYHAMDSWGQGTSVTVSS
VL: DIVLTQSPATLSVTPGDSVNLSCRASQSISNNLHWYQQKSHESPRLLIKYVFQSISGIPSRFSGSGSGTDFTLSINSVETEDFGMYFCQQSNSWPLTFGAGTKLELK
B2: Eph099B-208.261: EphA2 monoclonal antibody; hybridoma ATCC PTA-4573; VL SEQ ID NO:1, VH SEQ ID NO:5 (antibody, listed as Homo sapiens, V domains shown)
VH: QVQLQQPGAELVKPGASVKLSCKASGYTFTSYWMHWVKQRPGQGLEWIGMIHPNSGSTNYNEKFKSKATLTVDKSSSTAYMRLSSLTSEDSAVYYCARGGNMVGGGYWGQGTTLTVSS
VL: QIVLTQSPALMSASPGEKVTMTCSASSSVSYMYWYQQKPRSSPKPWIYLTTNLASGVPARFSGSGSGTSYSLTISSMEAEDAATYYCQQWSSNPFTFGSGTKLEIR
B3: EA2: EphA2 agonistic monoclonal antibody; ATCC deposit no. PTA-4380; co-pending application Ser. No. 10/436,783; VL SEQ ID NO:33, VH SEQ ID NO:37 (antibody, listed as Homo Sapiens, V domains shown)
VH: DVKLVESGGGLVKPGGSLKLSCAASGFTFSSYTMSWVRQTPEKRLEWVATISSGGTYTYYPDSVKGRFTISRDNAKNTLYLQMSSLKSEDTAMYYCTREAIFTYWGQGTLVTVSA
VL: DIKMTQSPSSMYASLGERVTITCKASQDINNYLSWFQQKPGKSPKTLIYRANRLVDGVPSRFSGSGSGQDYSLTISSLEYEDMGIYYCLKYDEFPYTFGGGTKLEIK

Columns and labels:
[1] = tested on: MDA-MB-231 breast cancer cells implanted subcutaneously; assay: Tumor growth and survival in vivo, MDA-MB-231 implanted subcutaneously; set-up: species or system athymic mice; conditions: for Growth of MDA-MB-231 cells implanted subcutaneously: 6mg/kg intraperitoneally twice a week for 3 weeks, versus PBS or 1A7
Procedure: MDA-MB-231 cells were implanted subcutaneously into athymic mice. After the tumors had grown to an average volume of 100 mm^3, mice were administered 6 mg/ml Eph099B-233.152 or PBS control intraperitoneally twice a week for 3 weeks. (A) Tumor Growth. Tumor growth was assessed and expressed as a ratio of the tumor volume divided by initial tumor volume (100 mm^3). Control mice are indicated by circles and Eph099B-233.152-treated mice are indicated by squares. Arrows indicate time of Eph099B-233.152 or PBS administration. (B) Survival. Tumor growth was allowed to proceed until tumor volume reached 1000 mm^3. Survival of the mice was assessed by scoring the percent of mice living each day post treatment. Control mice are indicated by grey and Eph099B-233.152-treated mice are indicated by black.
FIGS. 7A-7D: The EphA2 antibodies, EA2, Eph099B-208.261, and Eph099B-233.152, inhibit tumor cell growth in vivo. MDA-MB-231 breast cancer cells were implanted (A) orthotopically or (B) subcutaneously into athymic mice. (C) A549 lung cancer cells were implanted subcutaneously into athymic mice. After the tumors had grown to an average volume of 100 mm^3, mice were administered 6 mg/kg of the indicated antibody or negative control (PBS or 1A7 antibody) intraperitoneally twice a week for 3 weeks. Tumor growth was assessed and expressed as a ratio of the tumor volume divided by initial tumor volume (100 mm^3). (D) MDA-MB-231 breast cancer cells were implanted subcutaneously into athymic mice. After the tumors had grown to an average volume of 100 mm^3, mice were administered 6 mg/kg of the indicated antibody or negative control intraperitoneally twice a week for 3 weeks. Total tumor volume was determined after sacrifice. Negative control is black, EA2 is white, Eph099B-208.261 is dark grey, and Eph099B-233.152 is light grey.
The ability of the antibodies of the invention to inhibit tumor cancer growth in vivo was assayed. Eph099B-233.152 can inhibit tumor cell growth in vivo and extend survival time of tumor-bearing mice. Briefly, 5×10^6 MDA-MB-231 breast cancer cells were implanted subcutaneously into athymic mice. After the tumors had grown to an average volume of 100mm^3, mice were administered 6mg/ml Eph099B-233.152 or PBS control intraperitoneally twice a week for 3 weeks. Tumor growth was assessed and expressed as a ratio of the tumor volume divided by initial tumor volume (100 mm^3). […] Tumor growth was allowed to proceed until tumor volume reached 1000 mm^3. Survival of the mice was assessed by scoring the percent of mice living each day post treatment. […] By day 36, all of the mice in the control group had died in contrast with only 70% of the mice admixture Eph099B-233.152.
5×10^6MDA-MB-231 breast cancer cells were implanted orthotopically or subcutaneously and 5×10^6 A549 lung cancer cells were implanted subcutaneously into athymic mice. After the tumors had grown to an average volume of 100 mm^3, mice were administered 6mg/kg of an EphA2 agonistic antibody or negative control (PBS or 1A7 antibody) intraperitoneally twice a week for 3 weeks. Animals were generally sacrificed at least two weeks after the last treatment or when tumors exceeded 2000 mm^3. Tumor growth was assessed and expressed either as a ratio of the tumor volume divided by initial tumor volume (100 mm^3) or as total tumor volume. Growth of MDA-MB-231 cells implanted orthotopically was inhibited by EA2 (FIG. 7A). Growth of MDA-MB-231 cells implanted subcutaneously was inhibited by EA2, Eph099B-208.261, and Eph099B-233.152 (FIG. 7B, D). Growth of A549 cells implanted subcutaneously was inhibited by EA2, or Eph099B-208.261 (FIG. 7C).

EphA2 = EphA2 tyrosine phosphorylation in MDA-MB-231 cells (immunoprecipitation, phosphotyrosine western blot); assay type: cell-based; conditions: MDA-MB-231 monolayers, single dose 5 μg/ml, 37° C.
EphA2, sequence (P29317 24-976): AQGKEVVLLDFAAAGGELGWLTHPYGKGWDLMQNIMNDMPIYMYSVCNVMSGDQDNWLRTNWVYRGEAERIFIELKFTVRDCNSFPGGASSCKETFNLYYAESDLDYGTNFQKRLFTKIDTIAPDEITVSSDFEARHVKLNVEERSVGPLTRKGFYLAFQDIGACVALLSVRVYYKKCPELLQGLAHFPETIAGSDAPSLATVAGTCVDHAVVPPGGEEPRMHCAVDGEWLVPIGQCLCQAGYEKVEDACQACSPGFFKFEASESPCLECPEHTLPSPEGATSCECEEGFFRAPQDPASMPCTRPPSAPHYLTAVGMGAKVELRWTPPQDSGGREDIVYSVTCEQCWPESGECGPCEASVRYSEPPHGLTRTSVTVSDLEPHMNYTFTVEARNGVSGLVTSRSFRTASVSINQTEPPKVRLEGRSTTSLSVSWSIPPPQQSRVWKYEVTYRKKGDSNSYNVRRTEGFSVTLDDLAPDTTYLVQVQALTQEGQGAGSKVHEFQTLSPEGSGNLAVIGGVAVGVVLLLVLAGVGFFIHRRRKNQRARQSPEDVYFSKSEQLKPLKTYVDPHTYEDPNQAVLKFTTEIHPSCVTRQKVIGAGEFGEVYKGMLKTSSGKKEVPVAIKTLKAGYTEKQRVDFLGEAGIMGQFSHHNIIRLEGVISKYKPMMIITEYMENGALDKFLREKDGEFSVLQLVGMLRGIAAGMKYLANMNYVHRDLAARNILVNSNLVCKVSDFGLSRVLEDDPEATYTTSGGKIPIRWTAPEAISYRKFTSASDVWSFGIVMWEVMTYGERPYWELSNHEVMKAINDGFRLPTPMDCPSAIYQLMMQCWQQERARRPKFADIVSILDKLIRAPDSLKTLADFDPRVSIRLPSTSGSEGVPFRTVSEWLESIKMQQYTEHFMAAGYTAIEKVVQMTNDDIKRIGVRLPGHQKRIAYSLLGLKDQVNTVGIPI
Procedure: FIGS. 2A-2D: EphA2 antibodies promote EphA2 tyrosine phosphorylation in MDA-MB-231 cells. Monolayers of MDA-MB-231 cells were incubated in the presence of a single dose of 5 μg/ml (A, C) Eph099B-208.261 or (B, D) EA2 for the indicated time at 37° C. Cell lysates were then immunoprecipitated with an EphA2-specific antibody, resolved by SDS-PAGE and subjected to western blot analysis with a phosphotyrosine-specific antibody (A, B). The membranes were stripped and re-probed with the EphA2-specific antibody used in the immunoprecipitation as a loading control (C, D).
Monolayers of MDA-MB-231 cells were incubated in the presence of a single dose of 5 μg/ml Eph099B-233.152 at 37° C. Cell lysates were then immunoprecipitated with D7 (an EphA2-specific antibody), resolved by SDS-PAGE and subjected to western blot analysis with (A) a phosphotyrosine-specific antibody or (B) an EphA2-specific antibody.
EphA2 antibodies promoted tyrosine phosphorylation and degradation of EphA2 in MDA-MB-231 cells. Monolayers of cells were incubated in the presence of EphA2 agonistic antibodies or control at 37° C. Cell lysates were then immunoprecipitated with an EphA2-specific antibody (D7, purchased from Upstate Biologicals, Inc., Lake Placid, N.Y. and deposited with the American Type […] Collection on Dec. 8, 2000, and assigned ATCC number PTA 2755), resolved by SDS-PAGE and subjected to western blot analysis with a phosphotyrosine-specific antibody (PY20 or 4G10, purchased from Upstate Biologicals, Inc., Lake Placid, N.Y.). […] Some membranes were stripped and re-probed with the EphA2-specific antibody used in the immunoprecipitation (D7) as a loading control (FIGS. 2C-2D).
Western blot analyses and immunoprecipitations were performed as described previously (Zantek et al., 1999, Cell Growth Diff. 10:629-38, which is incorporated by reference in its entirety). […] Antibody binding was detected by enhanced chemiluminescence (Pierce, Rockford, Ill.) and autoradiography (Kodak X-OMAT; Rochester, N.Y.).

Molecule	Growth of MDA-MB-231 cells implanted subcutaneously [1]	Mice that had died by day 36 ([1]; 6mg/ml intraperitoneally twice a week for 3 weeks, all control mice had died)	Survival of the mice (percent of mice living each day post treatment) ([1]; 6mg/ml intraperitoneally twice a week for 3 weeks, versus PBS)	Tumor growth (tumor volume divided by initial tumor volume) ([1]; 6mg/ml intraperitoneally twice a week for 3 weeks, versus PBS, after 30 days)	EphA2 tyrosine phosphorylation (EphA2)
B1	inhibited	70%	A greater percentage of mice survived at each time point examined	smaller tumors than mice administered PBS; also recorded: inhibits tumor cell growth in vivo	increased EphA2 phosphorylation; also recorded: promotes EphA2 tyrosine phosphorylation
B2	inhibited	–	–	–	increased EphA2 phosphorylation
B3	inhibited	–	–	–	increased EphA2 phosphorylation
